From US20250262210A1 (TRUSTEES OF COLUMBIA UNIVERSITY IN THE CITY OF NEW YORK, published 2025)
Where a chain is given by its changes, count along the chain named. Numbers in names are those of the source.

Key:
TTI1 = TTI1 (human, UniProt O43156 1-1089); test: IP/MS, LZTR1 wild type-FLAG, U87
Method in brief: (§1)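 Extracted peptides in 3% acetonitrile/0.1% formic acid ran on a 50 cm C18 column into an Orbitrap Fusion, with MaxQuant identification and spectral counting.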

USP47 = biological target: T1, USP47 (human, UniProt Q96K76 1-1375, limits assumed); test: IP/MS, LZTR1 wild type-FLAG, U87
T1 sequence (looked up): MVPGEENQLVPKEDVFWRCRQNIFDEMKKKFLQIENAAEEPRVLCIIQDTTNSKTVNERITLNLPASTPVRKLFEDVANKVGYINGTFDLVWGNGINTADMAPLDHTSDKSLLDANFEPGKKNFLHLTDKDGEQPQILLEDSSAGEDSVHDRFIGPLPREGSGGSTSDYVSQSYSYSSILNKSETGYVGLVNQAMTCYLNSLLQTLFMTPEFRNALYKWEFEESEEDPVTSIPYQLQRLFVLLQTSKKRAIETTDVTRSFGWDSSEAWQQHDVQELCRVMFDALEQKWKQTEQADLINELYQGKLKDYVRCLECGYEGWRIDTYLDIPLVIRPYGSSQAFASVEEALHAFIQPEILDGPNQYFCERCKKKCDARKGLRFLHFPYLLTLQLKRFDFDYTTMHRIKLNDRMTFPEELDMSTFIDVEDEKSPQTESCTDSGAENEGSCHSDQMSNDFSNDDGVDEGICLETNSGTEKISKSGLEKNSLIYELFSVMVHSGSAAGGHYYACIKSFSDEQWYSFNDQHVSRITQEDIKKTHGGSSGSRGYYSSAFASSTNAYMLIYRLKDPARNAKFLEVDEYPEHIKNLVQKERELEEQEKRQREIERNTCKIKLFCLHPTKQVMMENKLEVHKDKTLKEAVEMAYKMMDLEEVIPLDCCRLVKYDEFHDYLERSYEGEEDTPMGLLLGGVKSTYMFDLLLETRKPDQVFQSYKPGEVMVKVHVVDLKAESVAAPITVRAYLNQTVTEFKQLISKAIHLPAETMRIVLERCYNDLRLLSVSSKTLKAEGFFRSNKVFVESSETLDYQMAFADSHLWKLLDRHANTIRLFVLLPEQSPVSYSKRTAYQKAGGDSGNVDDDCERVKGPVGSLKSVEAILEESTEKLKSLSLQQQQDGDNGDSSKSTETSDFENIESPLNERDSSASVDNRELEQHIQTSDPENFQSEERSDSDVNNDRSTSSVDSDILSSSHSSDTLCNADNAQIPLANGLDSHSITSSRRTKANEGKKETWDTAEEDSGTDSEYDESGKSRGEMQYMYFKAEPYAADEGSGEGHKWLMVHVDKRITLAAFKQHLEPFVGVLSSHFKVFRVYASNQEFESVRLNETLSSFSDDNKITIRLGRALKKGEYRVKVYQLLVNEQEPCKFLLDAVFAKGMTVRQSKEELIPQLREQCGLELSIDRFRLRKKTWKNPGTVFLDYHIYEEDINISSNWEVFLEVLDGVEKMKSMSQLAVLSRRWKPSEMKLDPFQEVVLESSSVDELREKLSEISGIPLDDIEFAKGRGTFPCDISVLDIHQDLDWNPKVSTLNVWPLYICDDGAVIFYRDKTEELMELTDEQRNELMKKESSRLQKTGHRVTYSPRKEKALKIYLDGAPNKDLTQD
Method in brief: as §1

DIP2B = DIP2B (human, UniProt Q9P265 1-1576); test: IP/MS, LZTR1 wild type-FLAG, U87
Sequence of DIP2B (Q9P265 whole entry): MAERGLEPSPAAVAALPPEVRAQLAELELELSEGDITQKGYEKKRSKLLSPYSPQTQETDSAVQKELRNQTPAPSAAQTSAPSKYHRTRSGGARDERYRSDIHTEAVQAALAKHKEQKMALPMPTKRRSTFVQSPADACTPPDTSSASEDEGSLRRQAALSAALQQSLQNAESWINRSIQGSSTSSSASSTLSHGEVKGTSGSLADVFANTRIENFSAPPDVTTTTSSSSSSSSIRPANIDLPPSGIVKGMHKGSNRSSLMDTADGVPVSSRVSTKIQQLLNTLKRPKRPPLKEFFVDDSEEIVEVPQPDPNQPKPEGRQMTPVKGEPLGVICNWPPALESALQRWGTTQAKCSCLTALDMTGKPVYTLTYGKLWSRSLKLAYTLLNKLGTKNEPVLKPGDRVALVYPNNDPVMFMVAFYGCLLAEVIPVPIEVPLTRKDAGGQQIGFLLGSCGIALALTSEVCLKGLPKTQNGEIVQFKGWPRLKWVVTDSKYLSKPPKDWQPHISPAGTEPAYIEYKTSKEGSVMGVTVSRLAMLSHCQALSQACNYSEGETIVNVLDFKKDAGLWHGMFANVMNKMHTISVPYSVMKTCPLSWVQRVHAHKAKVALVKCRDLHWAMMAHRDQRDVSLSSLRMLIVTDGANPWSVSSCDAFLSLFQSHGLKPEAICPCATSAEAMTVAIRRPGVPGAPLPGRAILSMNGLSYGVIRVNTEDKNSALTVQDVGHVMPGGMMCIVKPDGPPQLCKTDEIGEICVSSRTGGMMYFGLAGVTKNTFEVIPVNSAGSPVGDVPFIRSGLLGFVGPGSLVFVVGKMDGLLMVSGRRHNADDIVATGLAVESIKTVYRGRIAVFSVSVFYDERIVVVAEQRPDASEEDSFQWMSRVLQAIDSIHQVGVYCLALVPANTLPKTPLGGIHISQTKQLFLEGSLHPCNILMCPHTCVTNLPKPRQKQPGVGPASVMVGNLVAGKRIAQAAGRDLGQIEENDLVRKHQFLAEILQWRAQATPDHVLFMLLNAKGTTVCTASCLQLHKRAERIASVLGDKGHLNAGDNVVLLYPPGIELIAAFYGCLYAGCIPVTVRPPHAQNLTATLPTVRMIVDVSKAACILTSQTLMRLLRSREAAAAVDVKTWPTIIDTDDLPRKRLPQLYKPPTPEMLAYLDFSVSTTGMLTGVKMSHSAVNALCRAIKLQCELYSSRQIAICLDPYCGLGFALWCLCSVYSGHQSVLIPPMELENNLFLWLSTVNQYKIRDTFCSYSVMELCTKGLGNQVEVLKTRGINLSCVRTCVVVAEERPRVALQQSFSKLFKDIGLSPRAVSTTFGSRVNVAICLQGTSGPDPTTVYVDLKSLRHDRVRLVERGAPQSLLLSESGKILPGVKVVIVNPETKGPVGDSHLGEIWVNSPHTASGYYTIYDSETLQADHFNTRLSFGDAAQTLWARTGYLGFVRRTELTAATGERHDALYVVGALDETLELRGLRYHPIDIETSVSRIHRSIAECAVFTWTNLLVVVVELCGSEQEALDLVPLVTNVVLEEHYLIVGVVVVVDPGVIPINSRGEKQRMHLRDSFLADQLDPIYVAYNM
Method in brief: as §1

AXL = AXL (human, UniProt P30530 26-894, limits assumed); test: IP/MS, LZTR1 R810W-FLAG, U87; spectral counts >2-fold against wild type
Description: (§2) Lysates were immunoprecipitated with FLAG affinity matrix and eluted with FLAG peptide. […] Protein gel slices were excised and in-gel digestion performed as previously described (83), with minor modifications. Gel slices were washed with 1:1 A cetonitrile and 100 mM ammonium bicarbonate for 30 min then dehydrated with 100% acetonitrile for 10 min until shrunk. The excess acetonitrile was then removed and the slices dried in speed-vacuum at room temperature for 10 min. Gel slices were reduced with 5 mM DTT for 30 min at 56° C. in an air thermostat, cooled down to room temperature, and alkylated with 11 mM IAA for 30 min with no light. Gel slices were then washed with 100 mM of ammonium bicarbonate and 100% acetonitrile for 10 min each. Excess acetonitrile was removed and dried in a speed-vacuum for 10 min at room temperature and the gel slices were re-hydrated in a solution of 25 ng/μl trypsin in 50 mM ammonium bicarbonate for 30 min on ice and digested overnight at 37° C. in an air thermostat. Digested peptides were collected and further extracted from gel slices in extraction buffer (1:2 ratio by volume of 5% formic acid:acetonitrile) at high speed, shaking in an air thermostat. […] The following modifications were used for protein identification and quantification: oxidation of methionine (M), acetylation of the protein N-terminus, and deamination for asparagine or glutamine (NQ). […]

EGFR = biological target: T2, EGFR (human, UniProt P00533 25-1210); test: as above
T2 construct: also called epidermal growth factor receptor
Description: as §2

Sequence of TTI1 (O43156 whole entry, the tested form may be a part): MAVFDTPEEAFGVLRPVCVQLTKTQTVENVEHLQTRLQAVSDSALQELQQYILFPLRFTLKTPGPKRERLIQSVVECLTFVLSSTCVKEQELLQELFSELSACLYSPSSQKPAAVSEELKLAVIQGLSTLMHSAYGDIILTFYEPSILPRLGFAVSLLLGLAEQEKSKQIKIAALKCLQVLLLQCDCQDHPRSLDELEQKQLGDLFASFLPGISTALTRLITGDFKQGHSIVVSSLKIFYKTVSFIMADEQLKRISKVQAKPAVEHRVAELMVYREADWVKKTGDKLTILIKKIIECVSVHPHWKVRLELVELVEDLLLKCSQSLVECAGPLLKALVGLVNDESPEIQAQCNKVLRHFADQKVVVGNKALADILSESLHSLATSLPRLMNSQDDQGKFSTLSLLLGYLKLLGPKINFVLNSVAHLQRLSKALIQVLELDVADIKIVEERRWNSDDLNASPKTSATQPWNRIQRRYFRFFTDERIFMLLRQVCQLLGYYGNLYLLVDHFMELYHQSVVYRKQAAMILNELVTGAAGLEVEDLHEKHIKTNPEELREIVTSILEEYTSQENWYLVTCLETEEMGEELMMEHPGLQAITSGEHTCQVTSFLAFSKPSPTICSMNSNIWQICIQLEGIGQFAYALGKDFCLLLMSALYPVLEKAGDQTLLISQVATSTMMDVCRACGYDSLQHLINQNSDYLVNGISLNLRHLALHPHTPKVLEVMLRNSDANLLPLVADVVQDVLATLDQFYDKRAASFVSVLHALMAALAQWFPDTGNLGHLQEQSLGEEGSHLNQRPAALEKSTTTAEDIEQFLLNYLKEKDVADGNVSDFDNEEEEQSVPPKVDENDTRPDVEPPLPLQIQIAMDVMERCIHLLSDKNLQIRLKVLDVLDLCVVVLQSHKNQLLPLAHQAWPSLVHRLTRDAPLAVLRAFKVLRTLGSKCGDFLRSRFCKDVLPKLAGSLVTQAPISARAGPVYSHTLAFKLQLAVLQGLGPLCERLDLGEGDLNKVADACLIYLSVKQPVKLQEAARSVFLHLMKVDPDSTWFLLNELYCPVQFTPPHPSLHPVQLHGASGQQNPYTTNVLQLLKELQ

B1: LZTR1-FLAG (other, human, UniProt Q8N653 1-840, looked up)
chain: MAGPGSTGGQIGAAALAGGARSKVAPSVDFDHSCSDSVEYLTLNFGPFETVHRWRRLPPCDEFVGARRSKHTVVAYKDAIYVFGGDNGKTMLNDLLRFDVKDCSWCRAFTTGTPPAPRYHHSAVVYGSSMFVFGGYTGDIYSNSNLKNKNDLFEYKFATGQWTEWKIEGRLPVARSAHGATVYSDKLWIFAGYDGNARLNDMWTIGLQDRELTCWEEVAQSGEIPPSCCNFPVAVCRDKMFVFSGQSGAKITNNLFQFEFKDKTWTRIPTEHLLRGSPPPPQRRYGHTMVAFDRHLYVFGGAADNTLPNELHCYDVDFQTWEVVQPSSDSEVGGAEVPERACASEEVPTLTYEERVGFKKSRDVFGLDFGTTSAKQPTQPASELPSGRLFHAAAVISDAMYIFGGTVDNNIRSGEMYRFQFSCYPKCTLHEDYGRLWESRQFCDVEFVLGEKEECVQGHVAIVTARSRWLRRKITQARERLAQKLEQEAAPVPREAPGVAAGGARPPLLHVAIREAEARPFEVLMQFLYTDKIKYPRKGHVEDVLLIMDVYKLALSFQLCRLEQLCRQYIEASVDLQNVLVVCESAARLQLSQLKEHCLNFVVKESHFNQVIMMKEFERLSSPLIVEIVRRKQQPPPRTPLDQPVDIGTSLIQDMKAYLEGAGAEFCDITLLLDGHPRPAHKAILAARSSYFEAMFRSFMPEDGQVNISIGEMVPSRQAFESMLRYIYYGEVNMPPEDSLYLFAAPYYYGFYNNRLQAYCKQNLEMNVTVQNVLQILEAADKTQALDMKRHCLHIIVHQFTKVSKLPTLRSLSQQLLLDIIDSLASHISDKQCAELGADI
notes: Expressed in HEK 293T, HeLa or U87 cells; used as cell lysate; also called LZTR1 wild type-FLAG; LZTR1 WT; not shown: FLAG tag at the C-terminus
binding result (TTI1): binds | binding result (USP47): binds | binding result (DIP2B): binds

B2: LZTR1 R810W-FLAG (other, human, UniProt Q8N653 1-840, looked up)
chain: B1 chain with R810W
notes: Stably expressed in U87 cells by lentivirus; also called LZTR1-FLAG-R810W; LZTR1 RW; not shown: FLAG tag
binding result (AXL): binds | binding result (EGFR): binds
